The test concerns the target T1, human Calcitonin Gene Related Peptide alpha (C-terminal amide (-NH2 printed after the last residue F; the filing words it as 'the N-terminal phenylalanine is amidated'); 125I radiolabeled in the receptor binding assay of Example 6).
T1 peptide: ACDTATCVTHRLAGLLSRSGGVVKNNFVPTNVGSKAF
Put plainly: ELISA.

Positions count from the first letter of the chain named.

B1: Antibody Ab3 (antibody)
heavy: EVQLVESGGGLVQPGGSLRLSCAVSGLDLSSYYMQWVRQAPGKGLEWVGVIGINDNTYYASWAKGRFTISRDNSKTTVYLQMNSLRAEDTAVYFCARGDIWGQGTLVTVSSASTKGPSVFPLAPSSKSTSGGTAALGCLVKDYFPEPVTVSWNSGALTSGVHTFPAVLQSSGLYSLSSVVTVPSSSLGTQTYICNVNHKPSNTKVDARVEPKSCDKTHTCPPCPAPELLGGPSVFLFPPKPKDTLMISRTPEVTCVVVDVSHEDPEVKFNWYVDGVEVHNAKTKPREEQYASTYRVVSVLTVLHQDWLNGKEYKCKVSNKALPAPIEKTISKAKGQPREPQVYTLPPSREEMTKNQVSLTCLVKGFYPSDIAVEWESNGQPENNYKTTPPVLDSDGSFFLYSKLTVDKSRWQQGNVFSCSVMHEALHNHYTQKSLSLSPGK
light: QVLTQSPSSLSASVGDRVTINCQASQSVYDNNYLAWYQQKPGKVPKQLIYSTSTLASGVPSRFSGSGSGTDFTLTISSLQPEDVATYYCLGSYDCSSGDCFVFGGGTKVEIKRTVAAPSVFIFPPSDEQLKSGTASVVCLLNNFYPREAKVQWKVDNALQSGNSQESVTEQDSKDSTYSLSSTLTLSKADYEKHKVYACEVTHQGLSSPVTKSFNRGEC
A word on the EC50: it is the concentration that produces a half-maximal response. Regarding B1, the EC50 came to 0.154 nM.

B2: Antibody Ab2 (antibody)
heavy: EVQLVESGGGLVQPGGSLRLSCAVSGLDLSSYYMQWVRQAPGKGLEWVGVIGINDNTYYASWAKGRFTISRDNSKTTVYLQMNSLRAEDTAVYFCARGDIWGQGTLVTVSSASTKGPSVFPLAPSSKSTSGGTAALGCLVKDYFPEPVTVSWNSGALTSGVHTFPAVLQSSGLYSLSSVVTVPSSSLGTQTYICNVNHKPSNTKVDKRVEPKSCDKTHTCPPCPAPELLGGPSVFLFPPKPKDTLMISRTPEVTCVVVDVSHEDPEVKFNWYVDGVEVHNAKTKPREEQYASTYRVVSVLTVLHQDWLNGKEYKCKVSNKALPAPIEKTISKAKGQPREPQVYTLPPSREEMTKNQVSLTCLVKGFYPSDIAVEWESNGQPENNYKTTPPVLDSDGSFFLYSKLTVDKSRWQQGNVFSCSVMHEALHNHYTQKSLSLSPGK
light: B1 light
On to B2, for which the EC50 worked out at 0.083 nM.

B3: Antibody Ab1 (antibody, V domains shown)
VH: QSLEESGGRLVTPGTPLTLTCTVSGLDLSSYYMQWVRQAPGKGLEWIGVIGINDNTYYASWAKGRFTISRASSTTVDLKMTSLTTEDTATYFCARGDIWGPGTLVTVSS
VL: QVLTQTASPVSAAVGSTVTINCQASQSVYDNNYLAWYQQKPGQPPKQLIYSTSTLASGVSSRFKGSGSGTQFTLTISDLECADAATYYCLGSYDCSSGDCFVFGGGTEVVVKR
B3: the EC50 was determined as 0.103 nM.

B4: Antibody Ab4 (antibody, V domains shown)
VH: B3 VH with T22S, L26I, S30G, Q34N, D54G, N55A, R70K, A71T
VL: QVLTQTPSPVSAAVGSTVTINCQASQSVYHNTYLAWYQQKPGQPPKQLIYDASTLASGVPSRFSGSGSGTQFTLTISGVQCNDAAAYYCLGSYDCTNGDCFVFGGGTEVVVKR
As for B4, the EC50 came to 0.088 nM.

For the origin of these results see patent US20120294802A1 (published 2012).
